From publication PMC3048092

Molecular target: FITC-BAD pSAHB-2
Assay: cross-linking

crosslinking conversion at 2 hours of UV exposure: 35%
Substance: BCL-XLΔC (domain or fragment)
